What was measured:
[1] = biological target: recombinant LILRB1 (human) (UniProt Q8NHL6); test: ELISA, control
[2] = biological target: recombinant LILRB1 (human) (UniProt Q8NHL6); test: Octet RED96, LILRB1 at 100, 33.3, 11.1 and 3.7 nM
LILRA1 on reporter cells = LILRA1 on reporter cells (UniProt O75019); test: flow cytometry on 2B4 cells expressing the LILR, PE
LILRA6 on reporter cells = LILRA6 on reporter cells (UniProt Q6PI73); test: as above
[3] = biological target: LILRB1 expressed on cell surface (human) (UniProt Q8NHL6); test: as above
Sequence of LILRB1 expressed on cell surface (human) (Q8NHL6 24-650 limits assumed): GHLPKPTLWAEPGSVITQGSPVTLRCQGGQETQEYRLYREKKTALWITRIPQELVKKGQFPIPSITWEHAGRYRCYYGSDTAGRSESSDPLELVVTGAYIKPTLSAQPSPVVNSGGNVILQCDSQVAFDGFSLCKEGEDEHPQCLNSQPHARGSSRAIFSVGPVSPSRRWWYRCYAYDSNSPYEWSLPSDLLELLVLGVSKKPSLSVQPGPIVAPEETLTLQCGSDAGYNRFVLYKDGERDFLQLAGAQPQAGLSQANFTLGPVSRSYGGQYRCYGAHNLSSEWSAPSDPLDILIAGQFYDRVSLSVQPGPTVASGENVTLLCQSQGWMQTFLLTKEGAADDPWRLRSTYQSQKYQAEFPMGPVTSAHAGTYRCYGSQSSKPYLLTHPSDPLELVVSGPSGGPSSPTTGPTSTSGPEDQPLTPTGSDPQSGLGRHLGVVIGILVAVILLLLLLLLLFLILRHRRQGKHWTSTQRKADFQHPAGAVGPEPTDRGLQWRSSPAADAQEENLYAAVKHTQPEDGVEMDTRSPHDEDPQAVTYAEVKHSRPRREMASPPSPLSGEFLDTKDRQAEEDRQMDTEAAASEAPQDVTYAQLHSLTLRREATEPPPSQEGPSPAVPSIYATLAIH

LILRB2 on reporter cells = LILRB2 on reporter cells (UniProt Q8N423); test: as above
Sequence of LILRB2 on reporter cells (Q8N423 22-597): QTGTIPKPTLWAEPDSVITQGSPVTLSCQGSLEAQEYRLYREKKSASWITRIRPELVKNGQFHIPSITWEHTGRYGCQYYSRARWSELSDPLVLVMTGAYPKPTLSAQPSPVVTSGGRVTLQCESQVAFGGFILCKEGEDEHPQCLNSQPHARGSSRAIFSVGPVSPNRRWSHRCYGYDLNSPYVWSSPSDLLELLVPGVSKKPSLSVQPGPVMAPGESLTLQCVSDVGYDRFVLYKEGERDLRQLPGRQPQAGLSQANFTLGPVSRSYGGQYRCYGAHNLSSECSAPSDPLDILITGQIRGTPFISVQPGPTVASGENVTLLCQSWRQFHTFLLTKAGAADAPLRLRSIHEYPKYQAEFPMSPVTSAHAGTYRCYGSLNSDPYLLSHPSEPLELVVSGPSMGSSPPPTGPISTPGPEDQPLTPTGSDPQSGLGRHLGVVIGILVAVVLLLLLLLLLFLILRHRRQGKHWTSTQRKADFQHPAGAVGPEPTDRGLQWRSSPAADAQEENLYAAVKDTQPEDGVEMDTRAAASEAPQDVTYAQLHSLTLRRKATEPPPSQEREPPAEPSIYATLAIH

LILRB5 on reporter cells = LILRB5 on reporter cells (UniProt O75023); test: as above
Sequence of LILRB5 on reporter cells (O75023 24-590 limits assumed): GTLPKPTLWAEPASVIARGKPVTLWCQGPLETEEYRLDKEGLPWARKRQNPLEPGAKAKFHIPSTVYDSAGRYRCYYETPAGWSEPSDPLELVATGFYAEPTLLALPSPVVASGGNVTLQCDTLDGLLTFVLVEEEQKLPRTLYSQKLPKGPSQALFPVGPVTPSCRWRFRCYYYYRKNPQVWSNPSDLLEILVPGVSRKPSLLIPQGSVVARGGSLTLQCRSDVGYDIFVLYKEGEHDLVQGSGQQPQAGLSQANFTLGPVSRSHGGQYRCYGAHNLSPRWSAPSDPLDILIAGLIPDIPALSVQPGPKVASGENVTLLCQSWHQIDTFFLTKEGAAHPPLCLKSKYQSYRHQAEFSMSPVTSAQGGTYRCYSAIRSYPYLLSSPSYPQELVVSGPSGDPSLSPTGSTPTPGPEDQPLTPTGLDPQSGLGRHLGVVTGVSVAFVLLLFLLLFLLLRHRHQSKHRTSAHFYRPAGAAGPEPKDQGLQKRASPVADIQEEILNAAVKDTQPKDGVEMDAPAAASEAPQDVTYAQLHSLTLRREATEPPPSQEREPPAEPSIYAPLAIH

LILRA5 on reporter cells = LILRA5 on reporter cells (UniProt A6NI73); test: as above
Sequence of LILRA5 on reporter cells (A6NI73 42-299): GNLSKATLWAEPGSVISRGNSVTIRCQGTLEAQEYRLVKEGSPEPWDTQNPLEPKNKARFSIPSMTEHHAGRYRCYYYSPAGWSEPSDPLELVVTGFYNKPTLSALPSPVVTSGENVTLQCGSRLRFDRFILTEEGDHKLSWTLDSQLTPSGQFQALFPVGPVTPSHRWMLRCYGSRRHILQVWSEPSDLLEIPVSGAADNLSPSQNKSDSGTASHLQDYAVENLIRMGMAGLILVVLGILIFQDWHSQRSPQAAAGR

LILRA2 on reporter cells = LILRA2 on reporter cells (UniProt Q8N149); test: as above
Sequence of LILRA2 on reporter cells (Q8N149 24-483): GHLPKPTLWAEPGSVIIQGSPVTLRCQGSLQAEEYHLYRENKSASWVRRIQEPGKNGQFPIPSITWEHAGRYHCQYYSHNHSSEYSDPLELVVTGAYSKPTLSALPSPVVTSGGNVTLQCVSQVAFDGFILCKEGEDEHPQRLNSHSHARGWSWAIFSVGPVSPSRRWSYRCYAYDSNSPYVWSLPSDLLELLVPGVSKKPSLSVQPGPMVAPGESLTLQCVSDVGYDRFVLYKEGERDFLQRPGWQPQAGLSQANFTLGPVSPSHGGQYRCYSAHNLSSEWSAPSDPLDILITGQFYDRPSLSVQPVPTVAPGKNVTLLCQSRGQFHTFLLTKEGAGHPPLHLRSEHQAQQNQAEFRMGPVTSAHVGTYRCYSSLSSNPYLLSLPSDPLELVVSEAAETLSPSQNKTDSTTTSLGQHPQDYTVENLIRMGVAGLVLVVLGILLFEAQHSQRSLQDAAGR

LILRA4 on reporter cells = LILRA4 on reporter cells (UniProt P59901); test: as above
Sequence of LILRA4 on reporter cells (P59901 24-499): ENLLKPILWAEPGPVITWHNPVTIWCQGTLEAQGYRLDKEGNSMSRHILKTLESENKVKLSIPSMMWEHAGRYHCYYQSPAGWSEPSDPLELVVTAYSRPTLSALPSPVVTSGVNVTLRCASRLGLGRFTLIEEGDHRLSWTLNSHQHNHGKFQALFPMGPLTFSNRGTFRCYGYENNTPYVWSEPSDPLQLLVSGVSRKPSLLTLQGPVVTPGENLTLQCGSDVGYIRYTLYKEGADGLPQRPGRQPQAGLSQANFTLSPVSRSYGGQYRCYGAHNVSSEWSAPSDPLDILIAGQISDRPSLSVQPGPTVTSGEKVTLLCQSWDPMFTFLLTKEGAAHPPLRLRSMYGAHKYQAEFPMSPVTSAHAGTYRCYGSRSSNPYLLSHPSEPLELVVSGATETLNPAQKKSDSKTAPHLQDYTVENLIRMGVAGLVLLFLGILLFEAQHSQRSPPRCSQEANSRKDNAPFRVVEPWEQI

LILRB3 on reporter cells = LILRB3 on reporter cells (UniProt O75022); test: as above
LILRB4 on reporter cells = LILRB4 on reporter cells (UniProt Q8NHJ6); test: as above

Sequence of recombinant LILRB1 (human) (Q8NHL6 24-461 limits assumed): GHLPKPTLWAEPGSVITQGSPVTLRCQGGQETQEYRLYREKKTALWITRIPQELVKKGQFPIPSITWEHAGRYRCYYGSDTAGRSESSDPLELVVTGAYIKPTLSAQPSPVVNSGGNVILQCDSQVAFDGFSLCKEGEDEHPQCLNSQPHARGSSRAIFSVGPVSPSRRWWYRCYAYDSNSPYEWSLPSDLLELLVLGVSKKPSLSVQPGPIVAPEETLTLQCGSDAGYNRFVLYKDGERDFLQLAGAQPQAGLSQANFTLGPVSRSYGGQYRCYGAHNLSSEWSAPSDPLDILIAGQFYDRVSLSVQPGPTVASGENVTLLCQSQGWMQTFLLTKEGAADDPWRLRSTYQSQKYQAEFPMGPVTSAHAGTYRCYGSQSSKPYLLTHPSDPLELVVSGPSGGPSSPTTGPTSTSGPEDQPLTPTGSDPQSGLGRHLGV
Sequence of LILRA6 on reporter cells (Q6PI73 24-481): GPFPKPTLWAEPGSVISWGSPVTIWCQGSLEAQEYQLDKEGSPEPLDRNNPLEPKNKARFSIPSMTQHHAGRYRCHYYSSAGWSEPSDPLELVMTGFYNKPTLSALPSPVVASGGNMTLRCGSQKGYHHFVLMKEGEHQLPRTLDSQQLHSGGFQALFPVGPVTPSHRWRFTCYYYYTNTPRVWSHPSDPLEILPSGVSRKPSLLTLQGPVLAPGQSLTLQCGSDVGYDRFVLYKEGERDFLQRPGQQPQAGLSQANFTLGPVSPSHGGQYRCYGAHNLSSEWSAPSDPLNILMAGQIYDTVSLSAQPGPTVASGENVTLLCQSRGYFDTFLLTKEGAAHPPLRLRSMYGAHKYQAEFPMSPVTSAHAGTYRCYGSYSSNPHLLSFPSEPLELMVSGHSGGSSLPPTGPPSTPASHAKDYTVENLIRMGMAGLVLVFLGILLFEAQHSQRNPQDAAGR
Sequence of LILRA1 on reporter cells (O75019 17-489 limits assumed): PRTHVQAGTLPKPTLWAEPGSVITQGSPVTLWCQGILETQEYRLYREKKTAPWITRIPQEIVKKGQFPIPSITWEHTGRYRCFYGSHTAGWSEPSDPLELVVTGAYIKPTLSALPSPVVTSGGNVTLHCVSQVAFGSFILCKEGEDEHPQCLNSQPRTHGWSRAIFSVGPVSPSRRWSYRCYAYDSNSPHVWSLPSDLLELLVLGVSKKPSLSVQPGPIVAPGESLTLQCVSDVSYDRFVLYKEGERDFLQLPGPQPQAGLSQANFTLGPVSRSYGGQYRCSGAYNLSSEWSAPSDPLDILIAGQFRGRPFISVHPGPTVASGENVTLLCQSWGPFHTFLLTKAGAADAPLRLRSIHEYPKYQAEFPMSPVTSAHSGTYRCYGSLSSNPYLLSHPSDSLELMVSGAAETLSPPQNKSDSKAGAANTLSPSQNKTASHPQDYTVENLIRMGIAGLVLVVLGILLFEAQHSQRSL

Ctrl
OD450 [1]: 0.1 OD450

GHI/75 (commercial anti-LILRB1 monoclonal antibody)
Kd [2]: 5.13 nM | percent of cells in the gate (LILRA1 on reporter cells): 1.22% | percent of cells in the gate (LILRA6 on reporter cells): 0.273% | percent of cells in the gate [3]: 98.8% | percent of cells in the gate (LILRB2 on reporter cells): 1.58% | percent of cells in the gate (LILRB5 on reporter cells): 0.558% | percent of cells in the gate (LILRA5 on reporter cells): 0.219% | percent of cells in the gate (LILRA2 on reporter cells): 1.25% | percent of cells in the gate (LILRA4 on reporter cells): 0.16% | percent of cells in the gate (LILRB3 on reporter cells): 0.867% | percent of cells in the gate (LILRB4 on reporter cells): 0.524%

HP-F1 (commercial anti-LILRB1 monoclonal antibody)
Kd [2]: 8.26 nM | percent of cells in the gate (LILRA1 on reporter cells): 80.8% | percent of cells in the gate (LILRA6 on reporter cells): 0.144% | percent of cells in the gate [3]: 98.5% | percent of cells in the gate (LILRB2 on reporter cells): 1.52% | percent of cells in the gate (LILRB5 on reporter cells): 0.0127% | percent of cells in the gate (LILRA5 on reporter cells): 0.343% | percent of cells in the gate (LILRA2 on reporter cells): 85.3% | percent of cells in the gate (LILRA4 on reporter cells): 0.301% | percent of cells in the gate (LILRB3 on reporter cells): 0.196% | percent of cells in the gate (LILRB4 on reporter cells): 0.0568%

R&D 292319 (antibody)
percent of cells in the gate (LILRA1 on reporter cells): 0.249% | percent of cells in the gate (LILRA6 on reporter cells): 0.199% | percent of cells in the gate [3]: 96.3% | percent of cells in the gate (LILRB2 on reporter cells): 0.65% | percent of cells in the gate (LILRB5 on reporter cells): 0.359% | percent of cells in the gate (LILRA5 on reporter cells): 0.282% | percent of cells in the gate (LILRA2 on reporter cells): 0.334% | percent of cells in the gate (LILRA4 on reporter cells): 0.27% | percent of cells in the gate (LILRB3 on reporter cells): 0.239% | percent of cells in the gate (LILRB4 on reporter cells): 0.466%
